Measurements published in US20230383012A1 (Xencor, published 2023).
Where a chain is given by its changes, count along the chain named.

B1: XENP39368 (bispecific antibody)
heavy: EVQLLESGGGLVQPGGSLRLSCAASGFTFSSYDMSWVRQAPGKRLEWVSTISSGGSFTHYPDSVKGRFTISRDNSKNTLYLQMNSLRAEDTAVYYCARRSLDWYFDVWGAGTTVTVSSASTKGPSVFPLAPSSKSTSGGTAALGCLVKDYFPEPVTVSWNSGALTSGVHTFPAVLQSSGLYSLSSVVTVPSSSLGTQTYICNVNHKPSDTKVDKKVEPKSCDKTHTCPPCPAPPVAGPSVFLFPPKPKDTLMISRTPEVTCVVVDVKHEDPEVKFNWYVDGVEVHNAKTKPREEEYNSTYRVVSVLTVLHQDWLNGKEYKCKVSNKALPAPIEKTISKAKGQPREPQVYTLPPSREEMTKNQVSLTCDVSGFYPSDIAVEWESDGQPENNYKTTPPVLDSDGSFFLYSKLTVDKSRWEQGDVFSCSVMHEALHNHYTQKSLSLSPGK
scFv-Fc: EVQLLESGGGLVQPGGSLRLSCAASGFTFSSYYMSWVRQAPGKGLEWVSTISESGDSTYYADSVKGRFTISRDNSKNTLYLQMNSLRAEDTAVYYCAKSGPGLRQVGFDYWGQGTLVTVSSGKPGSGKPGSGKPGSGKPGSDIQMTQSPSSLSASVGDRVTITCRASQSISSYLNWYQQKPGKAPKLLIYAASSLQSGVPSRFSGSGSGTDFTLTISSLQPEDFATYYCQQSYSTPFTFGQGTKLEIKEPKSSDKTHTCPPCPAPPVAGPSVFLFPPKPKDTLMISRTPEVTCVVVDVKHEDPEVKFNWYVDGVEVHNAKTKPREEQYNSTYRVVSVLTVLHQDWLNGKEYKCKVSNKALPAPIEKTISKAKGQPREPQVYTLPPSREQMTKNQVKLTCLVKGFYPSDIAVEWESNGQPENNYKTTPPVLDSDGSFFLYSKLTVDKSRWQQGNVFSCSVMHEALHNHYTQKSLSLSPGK
light: EIVLTQSPGTLSLSPGERATLSCRVSSSIQSTNLHWYQQKPGQSPRPLIYGTSVLATGVPVRFSGSGSGTDYTLTISRLEPEDFAVYYCQQWSSYPLYTFGGGTKVEIKRTVAAPSVFIFPPSDEQLKSGTASVVCLLNNFYPREAKVQWKVDNALQSGNSQESVTEQDSKDSTYSLSSTLTLSKADYEKHKVYACEVTHQGLSSPVTKSFNRGEC
B2: XENP39365 (bispecific antibody)
heavy: B1 heavy
scFv-Fc: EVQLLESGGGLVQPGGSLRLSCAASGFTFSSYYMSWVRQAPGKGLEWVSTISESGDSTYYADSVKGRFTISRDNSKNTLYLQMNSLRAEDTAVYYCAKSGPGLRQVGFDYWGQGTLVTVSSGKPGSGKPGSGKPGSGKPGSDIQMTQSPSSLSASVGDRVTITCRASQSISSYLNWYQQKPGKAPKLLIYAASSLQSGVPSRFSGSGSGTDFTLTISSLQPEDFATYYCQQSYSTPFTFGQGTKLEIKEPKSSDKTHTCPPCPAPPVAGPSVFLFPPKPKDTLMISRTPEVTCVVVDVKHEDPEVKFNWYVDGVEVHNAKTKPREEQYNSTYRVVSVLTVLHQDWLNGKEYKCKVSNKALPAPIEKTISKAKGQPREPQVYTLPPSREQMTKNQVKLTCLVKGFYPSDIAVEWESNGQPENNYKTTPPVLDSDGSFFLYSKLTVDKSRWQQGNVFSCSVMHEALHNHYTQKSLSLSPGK
light: B1 light with S27L, T32S, S53N, V54L, T57S

Molecular target: T1, human PDL1 (human, UniProt Q9NZQ7 19-238)
T1 construct: his-tagged in the Carterra assay; also called PDL1 antigen
Test: descriptor in the SEB-stimulated PBMC example

Binder	binding result
B1	binds
B2	binds
